The text below walks through data of US20260209362A1 (VIB VZW, published 2026).

Residue numbers refer to the chain shown, from its start.

Assay [1] deals with T1, biotinylated recombinant human IL-12Rβ2 (produced in-house) (human, UniProt Q99665 24-622, randomly biotinylated).
T1 construct: also called hIL-12RB2; human IL-12RB2
T1 sequence: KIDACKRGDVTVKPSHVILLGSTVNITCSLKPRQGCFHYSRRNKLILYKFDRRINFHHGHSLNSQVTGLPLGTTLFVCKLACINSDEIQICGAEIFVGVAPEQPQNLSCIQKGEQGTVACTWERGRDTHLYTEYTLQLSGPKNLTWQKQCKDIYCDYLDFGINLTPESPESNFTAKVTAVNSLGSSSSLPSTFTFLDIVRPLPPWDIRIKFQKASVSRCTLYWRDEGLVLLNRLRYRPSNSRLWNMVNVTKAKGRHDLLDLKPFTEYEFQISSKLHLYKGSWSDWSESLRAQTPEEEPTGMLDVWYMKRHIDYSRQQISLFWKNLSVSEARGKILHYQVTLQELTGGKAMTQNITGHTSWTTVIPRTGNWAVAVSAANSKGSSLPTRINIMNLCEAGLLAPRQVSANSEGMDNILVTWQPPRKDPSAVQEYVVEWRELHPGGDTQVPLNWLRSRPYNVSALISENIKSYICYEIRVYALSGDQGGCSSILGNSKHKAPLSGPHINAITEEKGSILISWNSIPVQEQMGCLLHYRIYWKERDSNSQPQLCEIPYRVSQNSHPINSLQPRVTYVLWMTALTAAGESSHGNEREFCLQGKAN
Description: ELISA, periplasmic extract on biotinylated human IL-12Rβ2; control streptavidin-coated blocked wells. (In general: ELISA stands for enzyme-linked immunosorbent assay.)

Assay [2] deals with T2, biotinylated recombinant mouse IL-12Rβ2 (produced in-house) (mouse, UniProt P97378 24-637, randomly biotinylated).
T2 construct: also called mIL-12RB2; mouse IL-12RB2
T2 sequence: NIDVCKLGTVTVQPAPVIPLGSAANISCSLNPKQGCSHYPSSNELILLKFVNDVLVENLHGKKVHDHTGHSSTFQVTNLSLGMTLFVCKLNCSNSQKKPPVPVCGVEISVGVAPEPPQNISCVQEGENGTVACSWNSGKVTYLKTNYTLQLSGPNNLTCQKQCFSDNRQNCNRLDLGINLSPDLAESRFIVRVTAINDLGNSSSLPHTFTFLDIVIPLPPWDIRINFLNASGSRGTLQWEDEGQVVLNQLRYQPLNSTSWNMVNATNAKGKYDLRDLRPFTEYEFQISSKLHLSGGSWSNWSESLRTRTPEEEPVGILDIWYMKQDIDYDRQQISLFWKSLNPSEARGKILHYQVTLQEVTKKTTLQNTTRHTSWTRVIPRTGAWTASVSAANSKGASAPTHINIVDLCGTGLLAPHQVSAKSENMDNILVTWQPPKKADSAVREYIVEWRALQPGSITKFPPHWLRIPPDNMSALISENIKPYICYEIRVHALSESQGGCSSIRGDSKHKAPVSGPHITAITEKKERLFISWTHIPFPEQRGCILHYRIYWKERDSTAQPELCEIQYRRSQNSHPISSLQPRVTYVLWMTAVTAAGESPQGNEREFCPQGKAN
Description: ELISA, periplasmic extract on biotinylated mouse IL-12Rβ2; control streptavidin-coated blocked wells.

B1: anti-IL-12Rβ2 VHH clone 2CAM56 (VHH)
VHH: QVQLQESGGGEVQAGGSLRLSCVASGRTFSVYTTGWFRQAPGKERELVAGMSGTRTYYADSVKGRFTISRDNAKNTVYLQMNSLKPDDTAVYYCAERRYGGPSLVWDEYDYRGQGTQVTVSS
notes: Tested as periplasmic extract; CDR3 group 28; also called 20490
In the case of B1, the “ELISA binding hIL-12RB2/control” value in assay [1] was 0.918 ratio to control. Further, the “ELISA binding mIL-12RB2/control” value in assay [2] is 5.21 ratio to control.

B2: anti-IL-12Rβ2 VHH clone 2CAM67 (VHH)
VHH: B1 VHH with L47F
notes: Tested as periplasmic extract; CDR3 group 28; also called 20494
For the molecule B2, the “ELISA binding hIL-12RB2/control” value in assay [1] is 0.87 ratio to control. Further, in assay [2], the “ELISA binding mIL-12RB2/control” value was 7.74 ratio to control.

B3: anti-IL-12Rβ2 VHH clone 3CAM65 (VHH)
VHH: QVQLQESGGGLVQAGGSLRLSCAPSGRTFTTYVMGWFRQAPGKEREFVAHISWSGGRTYYADSVKGRFTISRDNAKNTSYLQMNSLKPEDTAVYYCAAARSDAVRIGYAEGYEYWGQGTQVTVSS
notes: Tested as periplasmic extract; CDR3 group 49; also called 20513
As for B3, the “ELISA binding hIL-12RB2/control” value in assay [1] was 1.25 ratio to control. In assay [2], the “ELISA binding mIL-12RB2/control” value is 5.98 ratio to control.

B4: anti-IL-12Rβ2 VHH clone 2CAM39 (VHH)
VHH: QVQLQESGGGLVQAGGSLRLSCAASGRTFSTYAMGWFRQAPGKEREFVAAISWSGGSTYYADSVKGRFTISRDNAKNTGYLQMNSLKPEDTAVYVCAADAEDPILYGSSWNNRRKEYDYWGQGTQVTVSS
notes: Tested as periplasmic extract; CDR3 group 46; also called 20482
On to B4, for which the “ELISA binding hIL-12RB2/control” value in assay [1] is 1 ratio to control. In addition, the “ELISA binding mIL-12RB2/control” value in assay [2] is 8.02 ratio to control.

B5: anti-IL-12Rβ2 VHH clone 2CAMS52 (VHH)
VHH: QVQLQESGGGLVQPGASLRLSCATSGPTLSTYAMGWFRQAPGKEREVVATISWSGGRVTYVDSVKGRFTISRDNAKNTAYLQMNRLRPDDTAVYTCAARESDYGAYDYWGQGTQVTVSS
notes: Tested as periplasmic extract; CDR3 group 55; also called 20535
Regarding B5, the “ELISA binding hIL-12RB2/control” value in assay [1] was 0.969 ratio to control. Also, the “ELISA binding mIL-12RB2/control” value in assay [2] was 6.41 ratio to control.

B6: anti-IL-12Rβ2 VHH clone 2CAM9 (VHH)
VHH: QVQLQESGGGLVQAGMSLRLSCAASGLTFSWYRMGWFRQAPGKEREFVAGWYGVLTQYRDSVKGRFTISRDDAKNTVYLQMNSLKPEDTAVYYCAASLGGNYRSYEYDYWGQGTQVTVSS
notes: Tested as periplasmic extract; CDR3 group 19
For B6, the “ELISA binding hIL-12RB2/control” value in assay [1] was 1.09 ratio to control. The “ELISA binding mIL-12RB2/control” value in assay [2] was 8.27 ratio to control.

B7: anti-IL-12Rβ2 VHH clone 2CAM12 (VHH)
VHH: B6 VHH with M16G, L27R
notes: as for B6
As to B7, the “ELISA binding hIL-12RB2/control” value in assay [1] is 0.9 ratio to control. Further, in assay [2], the “ELISA binding mIL-12RB2/control” value is 3.38 ratio to control.

B8: anti-IL-12Rβ2 VHH clone 2CAM45 (VHH)
VHH: QVQLQESGGGLVQAGGSLRLSCAASGFTFDDYAIGWFRQAPGKEREGISCISSSDYGTYYAGSVKGRFTISSDNAKNTVYLQMNSLKPEDTAVYYCAAEAISEYDCLGINYGMDYWGKGTQVTVSS
notes: Tested as periplasmic extract; CDR3 group 47; also called 20485
B8: the “ELISA binding hIL-12RB2/control” value in assay [1] is 0.974 ratio to control. Also, in assay [2], the “ELISA binding mIL-12RB2/control” value is 10.4 ratio to control.

B9: anti-IL-12Rβ2 VHH clone 3CAM10 (VHH)
VHH: QVQLQESGGGLVQAGGSLRLSCAASGRTFSDYPMAWFRQAPGKEREFVAGISNGGTAYYADSVKGRFTISRDNTRNTVYLQMNRLKVEDTAVYYCAAVHLLSNLRGADPHEADYWGQGTQVTVSS
notes: Tested as periplasmic extract; CDR3 group 25; also called 20507
Take B9: the “ELISA binding hIL-12RB2/control” value in assay [1] is 1.14 ratio to control. Besides, the “ELISA binding mIL-12RB2/control” value in assay [2] was 40.9 ratio to control.

B10: anti-IL-12Rβ2 VHH clone 2CAM18 (VHH)
VHH: QVQLQESGGGLVQVGDSLKLSCVASGTTFSTHVMAWYRQAPGKQREWVASIDSAGTTNYKDAVKGRFTISRDNVKRTVYLQMNNLKPEDSAVYLCSIPSRNAWGQGTQVTVSS
notes: Tested as periplasmic extract; CDR3 group 45; also called 20475
As for B10, in assay [1], the “ELISA binding hIL-12RB2/control” value is 1.51 ratio to control. Moreover, the “ELISA binding mIL-12RB2/control” value in assay [2] was 3.22 ratio to control.

B11: anti-IL-12Rβ2 VHH clone 2CAM47 (VHH)
VHH: QVQLQESGGGVVQEGASLRLSCAASGRNLSTYAMGWIRQAPGKEREFVAAISWAGSTTYYADSVKGRFIISRDNAKNTLNLQMNSLKPEDTAVYYCAAPPYVTTTYYATPPSDIRDYHYWGQGTQVTVSS
notes: Tested as periplasmic extract; CDR3 group 27; also called 20487
Turning to B11, the “ELISA binding hIL-12RB2/control” value in assay [1] is 0.969 ratio to control. The “ELISA binding mIL-12RB2/control” value in assay [2] was 4.91 ratio to control.

B12: anti-IL-12Rβ2 VHH clone 3CAM11 (VHH)
VHH: B11 VHH with V11L, E14A, A16G
notes: Tested as periplasmic extract; CDR3 group 27; also called 20508
Consider B12, for which the “ELISA binding hIL-12RB2/control” value in assay [1] is 1.31 ratio to control. The “ELISA binding mIL-12RB2/control” value in assay [2] was 6.6 ratio to control.

B13: anti-IL-12Rβ2 VHH clone 2CRM40 (VHH)
VHH: QVQLQESGGGLVQTGGSLRLSCAASGRTYAMAWFRQAPGKEREFAAVIIGGDRTYYANSVKDRFTISRDNAKETVYLQMNNLKPEDTAVYYCAANRRLYNSGRGYSQSEYEYWGQGTQVTVSS
notes: Tested as periplasmic extract; CDR3 group 24; also called 20448
In the case of B13, the “ELISA binding hIL-12RB2/control” value in assay [1] was 0.993 ratio to control. Besides, in assay [2], the “ELISA binding mIL-12RB2/control” value was 5.86 ratio to control.

B14: anti-IL-12Rβ2 VHH clone 2CRMS29 (VHH)
VHH: QVQLQESGGGLVQAGGPLRLSCAASGRTFSGSAMGWFRQAPGKEREFVAAITWVGGFTYYADSVKGRFTISRDNAKNTVYLQMNNLSPEDTAVYSCAAQAYHKSGYYYPPLYDYWGQGTQVTVSS
notes: Tested as periplasmic extract; CDR3 group 52; also called 20521
With B14, the “ELISA binding hIL-12RB2/control” value in assay [1] was 1.05 ratio to control. Also, the “ELISA binding mIL-12RB2/control” value in assay [2] was 5.85 ratio to control.

B15: anti-IL-12Rβ2 VHH clone 3CAMS63 (VHH)
VHH: QVQLQESGGGLVQAGGSLRLSCAASGRTFSNYAMGWFRQAPGKEREFVAAINRSGTTLYVDSVKGRFTISRDNAKNTVALQMNSLKPEDTAVYYCVAGMPFSYSDYPRDSKYDYWGQGTQVTVSS
notes: Tested as periplasmic extract; CDR3 group 26; also called 20552
As to B15, the “ELISA binding hIL-12RB2/control” value in assay [1] was 1.01 ratio to control. In assay [2], the “ELISA binding mIL-12RB2/control” value was 9.78 ratio to control.

B16: anti-IL-12Rβ2 VHH clone 2CRM42 (VHH)
VHH: QVQLQESGGGLVQPGESLRLSCQASGRTFSNYRMGWFRQAPGKEREFVAGINWDGGHTYYTDSVKGRFTISRDNAKNTVYLQMNSLKPEDTAVYQCAVRVREYGSSRYEDQFDYWGQGTQVTVSS
notes: Tested as periplasmic extract; CDR3 group 18; also called 20449
As to B16, in assay [1], the “ELISA binding hIL-12RB2/control” value was 0.942 ratio to control. Further, the “ELISA binding mIL-12RB2/control” value in assay [2] was 6.09 ratio to control.

B17: anti-IL-12Rβ2 VHH clone 3CRM95 (VHH)
VHH: QVQLQESGGGLVQAGDFLRLSCVFSGGTFGDYSMGWFRQAPGKEREFVAAIRWSGDSTQYAEAVKGRFTISRDNAKSTVYLQMSSLKPEDTAVYYCAADPSYYIGPNHTPSRYRDWGQGTQVTVSS
notes: Tested as periplasmic extract; CDR3 group 44; also called 20465
As for B17, in assay [1], the “ELISA binding hIL-12RB2/control” value was 1.41 ratio to control. In assay [2], the “ELISA binding mIL-12RB2/control” value is 6.72 ratio to control.

B18: anti-IL-12Rβ2 VHH clone 3CAM1 (VHH)
VHH: QVQLQESGGGLVQAGGSLRLSCAASGRTFGSHRMGWFRQAPGQEREFVAAIAWRGGTQYYTDSVKGRFTISRDNANNTVYLQMNSLKPEDAAVYYCVAGEGSSWGDITDPRRYVFWGQGTQVTVSS
notes: Tested as periplasmic extract; CDR3 group 48
B18: in assay [1], the “ELISA binding hIL-12RB2/control” value was 1.2 ratio to control. In addition, the “ELISA binding mIL-12RB2/control” value in assay [2] was 3.3 ratio to control.

B19: anti-IL-12Rβ2 VHH clone 2CAMS29 (VHH)
VHH: QVQLQESGGGLVQAGGSLRLSCAASGLTSSTYVIGWFRQAPGKEREFVAAIMLSGGTTIYADSLKGRCTIYKDNAKNTVYLQMNSLKLEDTAVYYCASGLIYRYSDFPRSQKYNFWGQGTQVTVSS
notes: Tested as periplasmic extract; CDR3 group 54; also called 20534
For the molecule B19, in assay [1], the “ELISA binding hIL-12RB2/control” value was 1.06 ratio to control. In addition, the “ELISA binding mIL-12RB2/control” value in assay [2] was 6.24 ratio to control.

B20: anti-IL-12Rβ2 VHH clone 2CRM28 (VHH)
VHH: QVQLQESGGGLVQPGGSLRLSCAASGRAWNEYNMGWFRQAPGKEREFVALIWWSSGNTYYADSVKGRFTISRDKVKNTVYLQMNSLKPEDTAVYYCAAGPTFNKYEYWGQGTQVTVSS
notes: Tested as periplasmic extract; CDR3 group 40
As to B20, in assay [1], the “ELISA binding hIL-12RB2/control” value is 1 ratio to control. Also, the “ELISA binding mIL-12RB2/control” value in assay [2] was 13.5 ratio to control.
